# Columns and labels:
# [1] = ELISA stability characterization of tPA after storage in vial, solution or RRP; format: physicochemical
# Protocol: RRPs were initially kept at 20° C., and subsequently subjected to a fixed wall temperature of 65° C. for 3 hours. Samples were kept in 6 different storage conditions for 24 hours prior to assay preparation: (1) Standard Cathflo Activase lyophilized in glass vial at 20° C.; (2) Cathflo Activase reconstituted in Millipore filtered water and kept in glass vial at 20° C.; (3) lyophilized Cathflo Activase loaded into RRPs and kept at 20° C.; (4) Cathflo Activase lyophilized in glass vial at 65° C.; (5) Cathflo Activase reconstituted in Millipore filtered water and stored in glass vial at 65° C., and (6) Cathflo Activase loaded into RRP and kept at 65° C. After 24 hours each sample in lyophilized form, including those stored in the RRP, was reconstituted in 2 mL Millipore water, and apportioned for subsequent use in ELISA, UV-Vis and HPLC assays.
# Stability experiments were performed to characterize and compare the RRP with standard vials at various storage conditions. ELISA assays were used to test for stability of samples (Human tPA Platinum ELISA Kit, eBioscience, Inc.) that underwent two temperature conditions, T=20, 65° C. HPLC assays were not sufficient in assaying stability for tPA as the low pH buffer required denatured tPA regardless of conformation or partial denaturation already induced by the storage condition.
# The samples to be tested were injected into each ELISA well and left to incubate. After a wash step, a second antibody, horseradish peroxidase (HRP)-conjugated anti-tPA, was injected into each sample well. The HRP-conjugated anti-tPA bound onto the opposing side of the tPA molecule already bound onto the plate-fixed antibody. After a second wash step, a color inducing substrate (TMB substrate) was then injected into the wells, which bound onto the HRP to induce a measureable gradient representing the amount of tPA bound. In order to prevent oversaturation of the antibodies, the samples were diluted to 10 ng/mL to fall within the assay sensitivity range of 2 pg/mL-10 ng/mL. Optical signal intensity from assay plates were measured with spectrophotometer at wavelength 450 nm (PowerWave HT Microplate Spectrophotomer, BioTek Instruments, Inc.). Each sample was normalized against a calibration curve derived from a 5-parameter logistic fit of tPA standards ran concurrently with the samples.
# [2] = cited from earlier work
substance,measurement,setting,value
Tissue Plasminogen Activator [tPA],stability by ELISA,"[1]; all samples (solid, liquid, and RRP) at 20° C., over 24 hours",stability preservation
same,average activity retained (ELISA),"[1]; lyophilized in standard glass vial at 65° C., 24 hours",81.6%
same,"total initial drug stability retained, average (ELISA)","[1]; lyophilized, loaded into RRP, kept at 65° C., 24 hours",86.3%
same,"activity expressed, in average of the standard activity average (ELISA)","[1]; stored in reconstituted form within glass vials at 65° C., 24 hours",39.3%
same,stability time in solution (liquid form),[2],up to 8 hours

# — patent publication US20150297458A1, “RAPID RECONSTITUTION PACKAGES FOR MIXING AND DELIVERY OF DRUGS” (Massachusetts Institute of Technology, priority 2012, published 2015)
